In patent publication US20260144882A1 (BIO THERA SOLUTIONS, published 2026):

How the values were obtained:
[1] = molecular target: T1, human Nectin-4 extracellular antigen hNectin-4-His (human, UniProt Q96NY8 32-349); experiment: ELISA, phage scFv supernatant 1:50
T1 construct: C-terminal 8xHis tag included
T1 sequence: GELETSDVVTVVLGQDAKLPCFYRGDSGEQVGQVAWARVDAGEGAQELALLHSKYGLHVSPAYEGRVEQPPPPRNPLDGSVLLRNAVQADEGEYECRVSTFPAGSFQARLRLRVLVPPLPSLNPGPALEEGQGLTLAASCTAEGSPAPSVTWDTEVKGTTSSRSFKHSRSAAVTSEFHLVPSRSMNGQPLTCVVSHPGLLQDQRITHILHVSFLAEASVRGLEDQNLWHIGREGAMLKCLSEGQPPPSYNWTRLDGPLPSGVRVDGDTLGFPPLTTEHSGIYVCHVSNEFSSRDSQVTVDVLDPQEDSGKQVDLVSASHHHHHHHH

[2] = molecular target: T1, human Nectin-4 extracellular antigen …; experiment: ELISA, coated hNectin-4-His
Source text: The binding activity of the antibodies was detected by ELISA.

[3] = molecular target: T1, human Nectin-4 extracellular antigen …; experiment: SPR, antibody on Protein A chip, 1:1 fit
Source text: In this study, the affinity of the antibodies for the human Nectin-4 extracellular antigen was detected by surface plasmon resonance (SPR) technique (BIAcore: GE Healthcare, T200).

Row | Binder | OD value [1] [OD] | EC50 [2] [ng/mL] | further results
1 | 10F4-3 scFv (scFv, V domains shown, phage clone supernatant) VH: EVQLVESGGGLVQPGGSLRLSCAASGFSFGDFAMSWVRQAPGKGLEWVSVIDGHTAYNSYADSVKGRFTISRDNSKNTLYLQMNSLRAEDTAVYYCAREYSDVVDYVSVRTPLDYWGQGTLVTVSS VL: DIQMTQSPSSLSASVGDRVTITCRASQGISSYLAWYQQKPGKAPKLLIYAASSLQSGVPSRFSGSGSGTDFTLTISSLQPEDFATYYCQQHYTTPPTFGQGTKVEIKR | 1.32 |  | 
2 | 10F4-5 scFv (scFv, V domains shown, phage clone supernatant) VH: EVQLVESGGGLVQPGGSLRLSCAASGFIFDGYDMSWVRQAPGKGLEWVSVIKDHGGYKFYADSVKGRFTISRDNSKNTLYLQMNSLRAEDTAVYYCAREYSDVVDYVSVRTPLDYWGQGTLVTVSS VL: DIQMTQSPSSLSASVGDRVTITCRASQGISSYLAWYQQKPGKAPKLLIYAASSLQSGVPSRFSGSGSGTDFTLTISSLQPEDFATYYCQQHYTTPPTFGQGTKVEIKR | 1.31 |  | 
3 | 10F4-1B9 scFv (scFv, V domains shown, phage clone supernatant) VH: EVQLVESGGGLVQPGGSLRLSCAASGFNFDNYYMSWVRQAPGKGLEWVSSIYQTDASIFYADSVKGRFTISRDNSKNTLYLQMNSLRAEDTAVYYCAREYSDVVDYVSVRTPLDYWGQGTLVTVSS VL: DIQMTQSPSSLSASVGDRVTITCRASQGISSYLAWYQQKPGKAPKLLIYAASSLQSGVPSRFSGSGSGTDFTLTISSLQPEDFATYYCQQHYTTPPTFGQGTKVEIKR | 1.5 |  | 
4 | 10F4-1C7 scFv (scFv, V domains shown, phage clone supernatant) VH: EVQLVESGGGLVQPGGSLRLSCAASGDSFDNYWMSWVRQAPGKGLEWVSAIDTHSDNSFYADSVKGRFTISRDNSKNTLYLQMNSLRAEDTAVYYCAREYSDVVDYVSVRTPLDYWGQGTLVTVSS VL: DIQMTQSPSSLSASVGDRVTITCRASQGISSYLAWYQQKPGKAPKLLIYAASSLQSGVPSRFSGSGSGTDFTLTISSLQPEDFATYYCQQHYTTPPTFGQGTKVEIKR | 1.57 |  | 
5 | 10F4-1E1 scFv (scFv, V domains shown, phage clone supernatant) VH: EVQLVESGGGLVQPGGSLRLSCAASGDIFGNYWMSWVRQAPGKGLEWVSSIDASSGNRFYADSVKGRFTISRDNSKNTLYLQMNSLRAEDTAVYYCAREYSDVVDYVSVRTPLDYWGQGTLVTVSS VL: DIQMTQSPSSLSASVGDRVTITCRASQGISSYLAWYQQKPGKAPKLLIYAASSLQSGVPSRFSGSGSGTDFTLTISSLQPEDFATYYCQQHYTTPPTFGQGTKVEIKR | 1.63 |  | 
6 | 10F4-1F1 scFv (scFv, V domains shown, phage clone supernatant) VH: EVQLVESGGGLVQPGGSLRLSCAASGFSFSNYWMSWVRQAPGKGLEWVSAISPGDGTIFYADSVKGRFTISRDNSKNTLYLQMNSLRAEDTAVYYCAREYSDVVDYVSVRTPLDYWGQGTLVTVSS VL: DIQMTQSPSSLSASVGDRVTITCRASQGISSYLAWYQQKPGKAPKLLIYAASSLQSGVPSRFSGSGSGTDFTLTISSLQPEDFATYYCQQHYTTPPTFGQGTKVEIKR | 1.63 |  | 
7 | 10F4-2B11 scFv (scFv, V domains shown, phage clone supernatant) VH: EVQLVESGGGLVQPGGSLRLSCAASGGSFTNYWMSWVRQAPGKGLEWVSVIDSTGSNRFYADSVKGRFTISRDNSKNTLYLQMNSLRAEDTAVYYCAREYSDVVDYVSVRTPLDYWGQGTLVTVSS VL: DIQMTQSPSSLSASVGDRVTITCRASQGISSYLAWYQQKPGKAPKLLIYAASSLQSGVPSRFSGSGSGTDFTLTISSLQPEDFATYYCQQHYTTPPTFGQGTKVEIKR | 1.55 |  | 
8 | 10F4-2C2 scFv (scFv, V domains shown, phage clone supernatant) VH: EVQLVESGGGLVQPGGSLRLSCAASGFNFSNYWMSWVRQAPGKGLEWVSVIDAHSANIRYADSVKGRFTISRDNSKNTLYLQMNSLRAEDTAVYYCAREYSDVVDYVSVRTPLDYWGQGTLVTVSS VL: DIQMTQSPSSLSASVGDRVTITCRASQGISSYLAWYQQKPGKAPKLLIYAASSLQSGVPSRFSGSGSGTDFTLTISSLQPEDFATYYCQQHYTTPPTFGQGTKVEIKR | 1.58 |  | 
9 | antibody 1G8-1C10 (antibody, human IgG1, kappa, V domains shown) VH: EVQLVESGGGLVQPGGSLRLSCAASGFNFSDYSMSWVRQAPGKGLEWVSRIKASSGGSDYADSVKGRFTISRDNSKNTLYLQMNSLRAEDTAVYYCARQTEDRSYGYDLDYWGQGTLVTVSS VL: DIQMTQSPSSLSASVGDRVTITCRASQGISSYLAWYQQKPGKAPKLLIYAASSLQSGVPSRFSGSGSGTDFTLTISSLQPEDFATYYCQQHYTTPPTFGQGTKVEIKR |  | 5 | 
10 | antibody 1G8-2F11 (antibody, human IgG1, kappa, V domains shown) VH: EVQLVESGGGLVQPGGSLRLSCAASGYTFGSNAMSWVRQAPGKGLEWVSRISPDSSGISYADSVKGRFTISRDNSKNTLYLQMNSLRAEDTAVYYCARQTEDRSYGYDLDYWGQGTLVTVSS VL: DIQMTQSPSSLSASVGDRVTITCRASQGISSYLAWYQQKPGKAPKLLIYAASSLQSGVPSRFSGSGSGTDFTLTISSLQPEDFATYYCQQHYTTPPTFGQGTKVEIKR |  | 4 | 
11 | antibody 1G8-2H4 (antibody, human IgG1, kappa, V domains shown) VH: EVQLVESGGGLVQPGGSLRLSCAASGDSFTGYAMSWVRQAPGKGLEWVSAISGSGGSTYYADSVKGRFTISRDNSKNTLYLQMNSLRAEDTAVYYCARQTEDRSYGYDLDYWGQGTLVTVSS VL: DIQMTQSPSSLSASVGDRVTITCRASQGISSYLAWYQQKPGKAPKLLIYAASSLQSGVPSRFSGSGSGTDFTLTISSLQPEDFATYYCQQHYTTPPTFGQGTKVEIKR |  | 39 | 
12 | antibody 1G8-2H8 (antibody, human IgG1, kappa, V domains shown) VH: EVQLVESGGGLVQPGGSLRLSCAASGDIFGSYAMSWVRQAPGKGLEWVSAISGSGGSTYYADSVKGRFTISRDNSKNTLYLQMNSLRAEDTAVYYCARQTEDRSYGYDLDYWGQGTLVTVSS VL: DIQMTQSPSSLSASVGDRVTITCRASQGISSYLAWYQQKPGKAPKLLIYAASSLQSGVPSRFSGSGSGTDFTLTISSLQPEDFATYYCQQHYTTPPTFGQGTKVEIKR |  | 5 | 
13 | antibody 1F3-1C4 (antibody, human IgG1, kappa, V domains shown) VH: EVQLVESGGGLVQPGGSLRLSCAASGFTFGDYGMSWVRQAPGKGLEWVSGIKPWGSGTYYADSVKGRFTISRDNSKNTLYLQMNSLRAEDTAVYYCARAELLAFDVYTASDYWGQGTLVTVSS VL: DIQMTQSPSSLSASVGDRVTITCRASQGISSYLAWYQQKPGKAPKLLIYAASSLQSGVPSRFSGSGSGTDFTLTISSLQPEDFATYYCQQHYTTPPTFGQGTKVEIKR |  | 11 | 
14 | antibody 1F3-1E4 (antibody, human IgG1, kappa, V domains shown) VH: EVQLVESGGGLVQPGGSLRLSCAASGFSFGTYGMSWVRQAPGKGLEWVSRISGDSANIRYADSVKGRFTISRDNSKNTLYLQMNSLRAEDTAVYYCARAELLAFDVYTASDYWGQGTLVTVSS VL: DIQMTQSPSSLSASVGDRVTITCRASQGISSYLAWYQQKPGKAPKLLIYAASSLQSGVPSRFSGSGSGTDFTLTISSLQPEDFATYYCQQHYTTPPTFGQGTKVEIKR |  |  | Kd [3]: 0.426 nM; koff [3]: 0.000825 s⁻¹; kon [3]: 1.94e+06 M⁻¹ s⁻¹
15 | 1G8-1C12 scFv (scFv, V domains shown, phage clone supernatant) VH: EVQLVESGGGLVQPGGSLRLSCAASGGSFYGFGMSWVRQAPGKGLEWVSGIYSHDADKRYADSVKGRFTISRDNSKNTLYLQMNSLRAEDTAVYYCARQTEDRSYGYDLDYWGQGTLVTVSS VL: DIQMTQSPSSLSASVGDRVTITCRASQGISSYLAWYQQKPGKAPKLLIYAASSLQSGVPSRFSGSGSGTDFTLTISSLQPEDFATYYCQQHYTTPPTFGQGTKVEIKR | 1.42 |  | 
